As a reminder, the Km is the concentration of substrate that gives half-maximal velocity. For orientation: kcat means the number of substrate molecules converted per active site and unit of time at saturation. As usually defined, the kcat/Km is the second-order rate constant that governs catalysis at low substrate concentration. What is called stoichiometry N is the number of molecules, sites or subunits per partner or assembly.

Numbering of substitutions follows the chain as printed. Numbers in names are those of the source. Read-outs that look alike come from different tables or passages of the source.

Series [1] has as its target T1, RhamD from Azotobacter vinlandii (Azotobacter vinelandii, UniProt C1DMY1).
T1 sequence (C1DMY1 1-394): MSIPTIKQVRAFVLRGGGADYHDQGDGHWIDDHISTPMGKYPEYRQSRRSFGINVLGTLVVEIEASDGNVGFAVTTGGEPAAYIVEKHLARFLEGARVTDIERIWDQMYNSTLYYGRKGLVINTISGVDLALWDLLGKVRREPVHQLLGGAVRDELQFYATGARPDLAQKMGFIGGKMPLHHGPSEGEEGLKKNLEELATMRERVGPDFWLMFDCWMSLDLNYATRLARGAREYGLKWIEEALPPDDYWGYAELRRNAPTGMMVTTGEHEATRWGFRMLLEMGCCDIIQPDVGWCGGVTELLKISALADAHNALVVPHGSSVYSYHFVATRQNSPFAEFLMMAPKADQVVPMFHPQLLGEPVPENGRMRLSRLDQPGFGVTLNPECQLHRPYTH
The experiment in a line: dehydration activity. The series is classed as biochemical. The note with it: kinetic data not shown.

The target in series [2] is RhamD from Gibberella zeae (Fusarium graminearum, UniProt D0VX14). The following applies: kinetic data not shown.
Chain of RhamD from Gibberella zeae (D0VX14 1-450): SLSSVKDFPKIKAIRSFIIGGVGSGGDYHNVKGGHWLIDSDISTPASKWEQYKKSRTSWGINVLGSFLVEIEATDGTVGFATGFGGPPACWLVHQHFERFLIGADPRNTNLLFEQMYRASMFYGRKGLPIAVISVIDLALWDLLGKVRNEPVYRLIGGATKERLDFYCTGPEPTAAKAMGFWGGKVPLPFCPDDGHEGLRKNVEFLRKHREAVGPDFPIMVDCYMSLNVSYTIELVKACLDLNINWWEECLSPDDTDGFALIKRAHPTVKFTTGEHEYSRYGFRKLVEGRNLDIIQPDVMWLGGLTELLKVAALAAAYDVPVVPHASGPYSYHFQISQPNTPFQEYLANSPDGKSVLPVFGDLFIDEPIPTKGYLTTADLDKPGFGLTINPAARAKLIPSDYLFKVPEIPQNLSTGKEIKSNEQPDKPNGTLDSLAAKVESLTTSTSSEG
Substrate in series [3]: C[C@H](O)[C@H](O)[C@@H](O)[C@@H](O)C(=O)O
The experiment in a line: dehydration. The series is classed as biochemical, Salmonella enterica. The following applies: 5 mM MgCl2, Tris-HCl pH 7.9 or K-Hepes pH 7.5, 25 °C.

Substrate in series [4]: O=C(O)[C@H](O)[C@H](O)[C@@H](O)[C@@H](O)CO
Briefly: dehydration. The series is classed as biochemical, Salmonella enterica. The note with it: 5 mM MgCl2, Tris-HCl pH 7.9 or K-Hepes pH 7.5, 25 °C.

Substrate in series [5]: O=C(O)[C@H](O)[C@H](O)[C@@H](O)CO
Briefly: dehydration. The series is classed as biochemical, Salmonella enterica. The following applies: 5 mM MgCl2, Tris-HCl pH 7.9 or K-Hepes pH 7.5, 25 °C.

Substrate in series [6]: C[C@H](O)[C@H](O)[C@@H](O)[C@@H](O)C(=O)O
Briefly: dehydration. The following applies: 5 mM MgCl2, Tris-HCl pH 7.9 or K-Hepes pH 7.5, 25 °C. The series is classed as biochemical, Escherichia coli.

Substrate in series [7]: O=C(O)[C@H](O)[C@H](O)[C@@H](O)[C@@H](O)CO
The experiment in a line: dehydration. The note with it: 5 mM MgCl2, Tris-HCl pH 7.9 or K-Hepes pH 7.5, 25 °C. The series is classed as biochemical, Escherichia coli.

Substrate in series [8]: O=C(O)[C@H](O)[C@H](O)[C@@H](O)CO
The experiment in a line: dehydration. The series is classed as biochemical, Escherichia coli. The following applies: 5 mM MgCl2, Tris-HCl pH 7.9 or K-Hepes pH 7.5, 25 °C.

Series [9] concerns the molecule itself. Briefly: crystal structure.
Series [10] deals with the molecule itself. Briefly: crystal structure. The source holds these as a separate data set.

For the molecule `C[C@H](O)[C@H](O)[C@@H](O)[C@@H](O)C(=O)O` [L-rhamnonate], the dehydration activity result in [1] and in [2] was “Each of these homologues catalyzes the RhamD reaction” in each case.

B1: stRhamD (RhamD from S. typhimurium LT2) (Salmonella enterica subsp. enterica serovar Typhimurium str. LT2) (protein)
chain: MENIMTLPKIKHVRAWFIGGATAEKGAGGGDYHDQGGNHWIDDHIATPMSKYRDYEQSRQSFGINVLGTLIVEVEAENRQTGFAVSTAGEMGCFIVEKHLNRFIEGKCVSDIKLIHDQMLGATMYYSGSGGLVMNTISCVDLALWDLFGKVVGLPVYKLLGGAVRDEIQFYATGARPDLAKEMGFIGGKMPTHWGPHDGDAGIRKDAAMVADMREKCGPDFWLMLDCWMSQDVNYATKLAHACAPFNLKWIEECLPPQQYEGYRELKRNAPAGMMVTSGEHHGTLQSFRTLAETGIDIMQPDVGWCGGLTTLVEIAALAKSRGQLVVPHGSSVYSHHAVITFTNTPFSEFLMTSPDCSTLRPQFDPILLDEPVPVNGRIHKSVLDKPGFGVELNRDCHLKRPYSH
As for B1, in “dehydration [3]”, the Km came to 250 ± 80 µM, the kcat worked out at 3.9 ± 1.6 s⁻¹ and the kcat/Km was determined as 16000 M⁻¹ s⁻¹. Further, in the series “dehydration [4]”, the Km was found to be 60 ± 40 µM, the kcat is 0.1 ± 0.06 s⁻¹ and the kcat/Km worked out at 1700 M⁻¹ s⁻¹. For the same molecule, in the series “dehydration [5]”, the Km was 1600 ± 1200 µM, the kcat was found to be 0.05 ± 0.03 s⁻¹ and the kcat/Km worked out at 30 M⁻¹ s⁻¹.

B2: L-rhamnonate dehydratase (RhamD) from Escherichia coli K-12 (enzyme, E. coli K-12)
chain: MTLPKIKQVRAWFTGGATAEKGAGGGDYHDQGANHWIDDHIATPMSKYRDYEQSRQSFGINVLGTLVVEVEAENGQTGFAVSTAGEMGCFIVEKHLNRFIEGKCVSDIKLIHDQMLSATLYYSGSGGLVMNTISCVDLALWDLFGKVVGLPVYKLLGGAVRDEIQFYATGARPDLAKEMGFIGGKMPTHWGPHDGDAGIRKDAAMVADMREKCGEDFWLMLDCWMSQDVNYATKLAHACAPYNLKWIEECLPPQQYESYRELKRNAPVGMMVTSGEHHGTLQSFRTLSETGIDIMQPDVGWCGGLTTLVEIAAIAKSRGQLVVPHGSSVYSHHAVITFTNTPFSEFLMTSPDCSTMRPQFDPILLNEPVPVNGRIHKSVLDKPGFGVELNRDCNLKRPYSH
As for B2, in the series “dehydration [6]”, the Km was determined as 150 ± 70 µM, the kcat was 3.2 ± 0.2 s⁻¹ and the kcat/Km was found to be 21000 M⁻¹ s⁻¹. Besides, in “dehydration [7]”, the Km amounted to 150 ± 60 µM, the turnover number (kcat) was 0.2 ± 0.1 s⁻¹ and the kcat/Km is 1300 M⁻¹ s⁻¹. Further, in “dehydration [8]”, the Km worked out at 2000 ± 300 µM, the kcat came to 0.6 ± 0.03 s⁻¹ and the kcat/Km was 300 M⁻¹ s⁻¹. In addition, in the series “crystal structure [9]”, the “stoichiometry N” value was 8.

B3: YfaW / ecRhamD (RhamD from E. coli K-12) (Escherichia coli K-12; H277N) (protein)
chain: B2 chain with H277N
Regarding B3, in the series “dehydration [6]”, the Km was found to be 8800 ± 900 µM, the kcat was found to be 0.09 ± 0.01 s⁻¹ and the kcat/Km amounted to 10 M⁻¹ s⁻¹.

B4: YfaW / ecRhamD (RhamD from E. coli K-12) (Escherichia coli K-12; H325N) (protein)
chain: B2 chain with H325N
Turning to B4, in the series “dehydration [6]”, the Km came to 300 ± 30 µM, the kcat is 0.0005 ± 0.0001 s⁻¹ and the kcat/Km is 1.6 M⁻¹ s⁻¹.

B5: L-rhamnonate dehydratase (RhamD) from Salmonella typhimurium LT2 (enzyme)
chain: ENIMTLPKIKHVRAWFIGGATAEKGAGGGDYHDQGGNHWIDDHIATPMSKYRDYEQSRQSFGINVLGTLIVEVEAENRQTGFAVSTAGEMGCFIVEKHLNRFIEGKCVSDIKLIHDQMLGATMYYSGSGGLVMNTISCVDLALWDLFGKVVGLPVYKLLGGAVRDEIQFYATGARPDLAKEMGFIGGKMPTHWGPHDGDAGIRKDAAMVADMREKCGPDFWLMLDCWMSQDVNYATKLAHACAPFNLKWIEECLPPQQYEGYRELKRNAPAGMMVTSGEHHGTLQSFRTLAETGIDIMQPDVGWCGGLTTLVEIAALAKSRGQLVVPHGSSVYSHHAVITFTNTPFSEFLMTSPDCSTLRPQFDPILLDEPVPVNGRIHKSVLDKPGFGVELNRDCHLKRPYSH
B5: the “stoichiometry N” value in the series “crystal structure [10]” is 8.

Values taken from PMC2562705 (Biochemistry, 2008).
